Non-standard residues stand in square brackets, D forms with d. No end group written: not given here. Aib = CC(C)(N)C(=O)O

One test addresses human GLP-1 receptor (human, UniProt P43220 24-463). Briefly: cell-based or functional assay.
For test [1], the target named is T1, human GIP receptor (glucose-dependent insulinotropic peptide receptor, GIPR) (human, UniProt P48546 22-466).
T1 sequence (looked up): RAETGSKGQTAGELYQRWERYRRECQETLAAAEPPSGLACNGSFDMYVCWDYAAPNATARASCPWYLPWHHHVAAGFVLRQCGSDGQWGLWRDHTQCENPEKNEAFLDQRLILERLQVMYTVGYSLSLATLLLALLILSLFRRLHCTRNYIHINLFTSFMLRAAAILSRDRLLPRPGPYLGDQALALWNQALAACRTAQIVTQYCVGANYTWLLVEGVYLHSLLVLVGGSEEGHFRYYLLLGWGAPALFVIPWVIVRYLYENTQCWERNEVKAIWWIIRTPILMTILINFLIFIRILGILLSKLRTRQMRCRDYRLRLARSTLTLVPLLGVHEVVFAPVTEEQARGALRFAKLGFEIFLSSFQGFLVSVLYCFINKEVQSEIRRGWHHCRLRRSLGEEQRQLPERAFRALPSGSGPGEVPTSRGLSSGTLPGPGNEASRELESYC
Briefly: cell-based or functional assay.

With Y[Aib]EGTFISDYSIALDRLHQEDFVKWLLAQRG (also: long-acting conjugating component, site and structure not given here) [Peptide 15 (long-acting conjugate of GIP analog, Seq ID. 15)], the “EC50(pM), cell agonistic activity” value with human GLP-1 receptor is greater than 100 pM. For the same molecule, in test [1], the “EC50(pM), cell agonistic activity (cAMP, HTRF)” value (“EC50(pM) … (cAMP, HTRF)” below) came to 9.14 pM.

Turning to Y[Aib]EGTFISDYSIALDRLHQQDFVKWLLAQRG (also: long-acting conjugating component, site and structure not given here) [Peptide 17 (long-acting conjugate of GIP analog, Seq ID. 17)], the “EC50(pM), cell agonistic activity” value with human GLP-1 receptor was greater than 100 pM. Besides, in test [1], the “EC50(pM) … (cAMP, HTRF)” value is 25.7 pM.

Take Y[Aib]EGTFISDYSIALDRIHQQDFVKWLLAQRG (also: long-acting conjugating component, site and structure not given here) [Peptide 13 (long-acting conjugate of GIP analog, Seq ID. 13)]: the “EC50(pM), cell agonistic activity” value with human GLP-1 receptor was greater than 100 pM. For the same molecule, the “EC50(pM) … (cAMP, HTRF)” value in test [1] was 5.61 pM.

Regarding Y[Aib]EGTFISDYSIALDRLHQQDFVNWLLAQKG (also: long-acting conjugating component, site and structure not given here) [Peptide 18 (long-acting conjugate of GIP analog, Seq ID. 18)], the “EC50(pM), cell agonistic activity” value with human GLP-1 receptor is greater than 100 pM. Moreover, in test [1], the “EC50(pM) … (cAMP, HTRF)” value was 21.1 pM.

For the molecule Y[Aib]EGTFISDYSIALDRIHQQDFVNWLLAQK(18‑(((23R)-23-carboxyl-2,11,20-trioxo-10,19-diaza-4,7,13,16-tetraoxatricosyl-23-yl)amino)‑18‑oxooctadecanoic acid acetyl)G, the “EC50(pM), cell agonistic activity” value with human GLP-1 receptor is greater than 100 pM. In addition, the “EC50(pM) … (cAMP, HTRF)” value in test [1] is 3.5 pM.

For Y[Aib]EGTFISDYSIALDEIHQKDFVNWLLAQRG (also: long-acting conjugating component, site and structure not given here) [Peptide 5 (long-acting conjugate of GIP analog, Seq ID. 5)], in the test with human GLP-1 receptor, the “EC50(pM), cell agonistic activity” value was greater than 100 pM. The “EC50(pM) … (cAMP, HTRF)” value in test [1] came to 27 pM.

Consider Y[Aib]EGTFISDYSIALDK(18‑(((23R)-23-carboxyl-2,11,20-trioxo-10,19-diaza-4,7,13,16-tetraoxatricosyl-23-yl)amino)‑18‑oxooctadecanoic acid acetyl)LHQEDFVNWLLAQRG, for which the “EC50(pM), cell agonistic activity” value with human GLP-1 receptor is greater than 100 pM. Besides, the “EC50(pM) … (cAMP, HTRF)” value in test [1] is 6.82 pM.

For the molecule Y[Aib]EGTFISDYSIALDK(18‑(((23R)-23-carboxyl-2,11,20-trioxo-10,19-diaza-4,7,13,16-tetraoxatricosyl-23-yl)amino)‑18‑oxooctadecanoic acid acetyl)IHQEDFVNWLLAQRG, the “EC50(pM), cell agonistic activity” value in the test with human GLP-1 receptor is greater than 100 pM. For the same molecule, the “EC50(pM) … (cAMP, HTRF)” value in test [1] came to 7.24 pM.

On to Y[Aib]EGTFISDYSIALDELHQKDFVNWLLAQRG (also: long-acting conjugating component, site and structure not given here) [Peptide 6 (long-acting conjugate of GIP analog, Seq ID. 6)], for which the “EC50(pM), cell agonistic activity” value in the test with human GLP-1 receptor was greater than 100 pM. For the same molecule, the “EC50(pM) … (cAMP, HTRF)” value in test [1] was determined as 32.2 pM.

Take Y[Aib]EGTFISDYSIALDRIHQEDFVNWLLAQKG (also: long-acting conjugating component, site and structure not given here) [Peptide 12 (long-acting conjugate of GIP analog, Seq ID. 12)]: the “EC50(pM), cell agonistic activity” value with human GLP-1 receptor was greater than 100 pM. The “EC50(pM) … (cAMP, HTRF)” value in test [1] stood at 5.14 pM.

Take Y[Aib]EGTFISDYSIALDRIHQEDFVKWLLAQRG (also: long-acting conjugating component, site and structure not given here) [Peptide 11 (long-acting conjugate of GIP analog, Seq ID. 11)]: the “EC50(pM), cell agonistic activity” value in the test with human GLP-1 receptor is greater than 100 pM. For the same molecule, in test [1], the “EC50(pM) … (cAMP, HTRF)” value was 3.5 pM.

Y[Aib]EGTFISDYSIALDK(18‑(((23R)-23-carboxyl-2,11,20-trioxo-10,19-diaza-4,7,13,16-tetraoxatricosyl-23-yl)amino)‑18‑oxooctadecanoic acid acetyl)IHQQDFVNWLLAQRG: the “EC50(pM), cell agonistic activity” value with human GLP-1 receptor is greater than 100 pM. Also, the “EC50(pM) … (cAMP, HTRF)” value in test [1] was found to be 6.66 pM.

For Y[Aib]EGTFISDYSIALDRLHQEDFVNWLLAQKG (also: long-acting conjugating component, site and structure not given here) [Peptide 16 (long-acting conjugate of GIP analog, Seq ID. 16)], in the test with human GLP-1 receptor, the “EC50(pM), cell agonistic activity” value is greater than 100 pM. Also, the “EC50(pM) … (cAMP, HTRF)” value in test [1] is 3.77 pM.

As for Y[Aib]EGTFISDYSIALDK(18‑(((23R)-23-carboxyl-2,11,20-trioxo-10,19-diaza-4,7,13,16-tetraoxatricosyl-23-yl)amino)‑18‑oxooctadecanoic acid acetyl)LHQQDFVNWLLAQRG, in the test with human GLP-1 receptor, the “EC50(pM), cell agonistic activity” value was greater than 100 pM. Besides, in test [1], the “EC50(pM) … (cAMP, HTRF)” value was 4.26 pM.

The values are drawn from US20240239863A1, “GIP RECEPTOR AGONIST AND USE THEREOF” (HANGZHOU ZHONGMEIHUADONG PHARMACEUTICAL CO., LTD., priority 2022, published 2024).
